The target in the assay is T1, human sodium-dependent phosphate transporter 2B (NaPi2b) (human, UniProt O95436 1-690).
T1 sequence: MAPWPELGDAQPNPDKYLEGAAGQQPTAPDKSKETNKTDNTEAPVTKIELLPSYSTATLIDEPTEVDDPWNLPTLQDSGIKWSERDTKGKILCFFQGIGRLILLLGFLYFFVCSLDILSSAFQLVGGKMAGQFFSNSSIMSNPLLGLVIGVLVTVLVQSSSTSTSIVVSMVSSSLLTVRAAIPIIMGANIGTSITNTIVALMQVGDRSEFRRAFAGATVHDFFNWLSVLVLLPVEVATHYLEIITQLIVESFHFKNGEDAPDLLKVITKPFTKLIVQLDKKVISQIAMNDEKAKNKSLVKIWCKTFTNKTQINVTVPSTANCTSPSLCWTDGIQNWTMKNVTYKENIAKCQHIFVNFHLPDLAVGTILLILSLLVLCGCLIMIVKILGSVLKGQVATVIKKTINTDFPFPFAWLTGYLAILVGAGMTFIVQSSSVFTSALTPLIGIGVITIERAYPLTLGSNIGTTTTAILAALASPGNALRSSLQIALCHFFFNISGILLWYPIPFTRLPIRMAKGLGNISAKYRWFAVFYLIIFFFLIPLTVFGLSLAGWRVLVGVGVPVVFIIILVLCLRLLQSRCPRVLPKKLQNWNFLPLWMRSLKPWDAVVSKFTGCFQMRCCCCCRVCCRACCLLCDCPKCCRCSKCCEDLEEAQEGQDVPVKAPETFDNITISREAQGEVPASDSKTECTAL
Briefly: cell-based or functional assay.

B1: v18992-DL1, MX35 conjugated to MC-GGFG-AM-DXd1 (DAR 8) (antibody, human IgG1, kappa)
heavy 1: GQVQLVQSGAEVVKPGASVKMSCKASGYTFTGYNIHWVKQAPGQGLEWIGAIYPGNGDTSYKQKFRGRATLTADTSTSTVYMELSSLRSEDSAVYYCARGETARATFAYWGQGTLVTVSSASTKGPSVFPLAPSSKSTSGGTAALGCLVKDYFPEPVTVSWNSGALTSGVHTFPAVLQSSGLYSLSSVVTVPSSSLGTQTYICNVNHKPSNTKVDKKVEPKSCDKTHTCPPCPAPELLGGPSVFLFPPKPKDTLMISRTPEVTCVVVDVSHEDPEVKFNWYVDGVEVHNAKTKPREEQYNSTYRVVSVLTVLHQDWLNGKEYKCKVSNKALPAPIEKTISKAKGQPREPQVYVYPPSRDELTKNQVSLTCLVKGFYPSDIAVEWESNGQPENNYKTTPPVLDSDGSFALVSKLTVDKSRWQQGNVFSCSVMHEALHNHYTQKSLSLSPG
heavy 2: not shown
light: GDIQMTQSPSSLSASVGDRVTITCSASQDIGNFLNWYQQKPGKTVKVLIYYTSSLYSGVPSRFSGSGSGTDYTLTISSLQPEDFATYYCQQYSKLPLTFGQGTKLELKRTVAAPSVFIFPPSDEQLKSGTASVVCLLNNFYPREAKVQWKVDNALQSGNSQESVTEQDSKDSTYSLSSTLTLSKADYEKHKVYACEVTHQGLSSPVTKSFNRGEC
modifications: MC-GGFG-AM-DXd1 (DL1) on cysteines freed by reduction; positions not given; MC-GGFG-AM-DXd1 (DL1) on cysteines freed by reduction; positions not given; DAR 8 for the whole antibody
Take B1: the “In vitro cytotoxicity EC50 (nM), HCC-78” value was found to be 0.68 nM and the “In vitro cytotoxicity EC50 (nM), IGROV-1” value amounted to 1.04 nM.

B2: v23855-DL3, v23855 conjugated to MC-VC-PABC-MMAE (DAR 4) (antibody, human IgG1, kappa, V domains shown)
VH: QAYLQQSGAELVRPGASVKMSCKASGFTFTSYNVHWVKQTPRQGLEWIAAISPGNGDLSYNQRFKDKATLTVDRSSSTAYMQLSGLTSEDSAVYFCARGRTGMGAVDYWGQGTSVTVSS
VL: DVQMTQTASSLSASLGDRVTISCRASQDVYSYLNWYQQKPHGTVKLLIYYTSRLQSGVPSRFTGSGSGTDYSLTISNLEPEDIATYYCQQYNIFPWTFGGGTKLEIKR
modifications: MC-VC-PABC-MMAE (DL3) on cysteines freed by reduction; positions not given; MC-VC-PABC-MMAE (DL3) on cysteines freed by reduction; positions not given; DAR 4 for the whole antibody
As to B2, the “In vitro cytotoxicity EC50 (nM), HCC-78” value came to 0.2 nM; the “In vitro cytotoxicity EC50 (nM), IGROV-1” value was 0.18 nM; the “In vitro cytotoxicity EC50 (nM), OVCAR-3” value amounted to 0.05 nM.

B3: v18993-DL1, lifastuzumab conjugated to MC-GGFG-AM-DXd1 (DAR 8) (antibody, human IgG1, kappa)
heavy 1: GEVQLVESGGGLVQPGGSLRLSCAASGFSFSDFAMSWVRQAPGKGLEWVATIGRVAFHTYYPDSMKGRFTISRDNSKNTLYLQMNSLRAEDTAVYYCARHRGFDVGHFDFWGQGTLVTVSSASTKGPSVFPLAPSSKSTSGGTAALGCLVKDYFPEPVTVSWNSGALTSGVHTFPAVLQSSGLYSLSSVVTVPSSSLGTQTYICNVNHKPSNTKVDKKVEPKSCDKTHTCPPCPAPELLGGPSVFLFPPKPKDTLMISRTPEVTCVVVDVSHEDPEVKFNWYVDGVEVHNAKTKPREEQYNSTYRVVSVLTVLHQDWLNGKEYKCKVSNKALPAPIEKTISKAKGQPREPQVYVYPPSRDELTKNQVSLTCLVKGFYPSDIAVEWESNGQPENNYKTTPPVLDSDGSFALVSKLTVDKSRWQQGNVFSCSVMHEALHNHYTQKSLSLSPG
heavy 2: not shown
light: GDIQMTQSPSSLSASVGDRVTITCRSSETLVHSSGNTYLEWYQQKPGKAPKLLIYRVSNRFSGVPSRFSGSGSGTDFTLTISSLQPEDFATYYCFQGSFNPLTFGQGTKVEIKRTVAAPSVFIFPPSDEQLKSGTASVVCLLNNFYPREAKVQWKVDNALQSGNSQESVTEQDSKDSTYSLSSTLTLSKADYEKHKVYACEVTHQGLSSPVTKSFNRGEC
modifications: MC-GGFG-AM-DXd1 (DL1) on cysteines freed by reduction; positions not given; MC-GGFG-AM-DXd1 (DL1) on cysteines freed by reduction; positions not given; DAR 8 for the whole antibody
As for B3, the “In vitro cytotoxicity EC50 (nM), HCC-78” value is 5.45 nM and the “In vitro cytotoxicity EC50 (nM), IGROV-1” value came to 3.45 nM.

Source of the values: patent publication US20250277030A1 (Zymeworks, published 2025).
